The results in this text go back to a protein production outcome set (Wang et al. 2014).

The series is described as follows: label from the status in PepcDB records.
“MTDRYIAFANSPVGRRLVGAVGLPSPLRLERWQAGRVRPVDGPLVIGGSGALAEAVLPFAGKLTDAVFAAVDGQFELPRWTAEHSPRAKAVLFDASGLTRFEQLVALRDFFQPVLKGLDKCPKVVVLGRPPESLKDPVTASVQRSLEGFTRSLGKEIRRGGNVQLLYVGKGAEDQLEGALRFFLSPKSAYVSGQVIRLAANSAQVHDWSKPLAGQRALVTGAARGIGAAIAETLARDGAEVVLLDVPPAREALEGLAARLGGRAVALDICAADAGQQLVEALPEGVDIVVHNAGITRDKTLAKMSSDFWNSVINVNLNAPQVLTQALLDGGKLHDNGRVVLLASISGIAGNLGQSNYAVSKAGLIGLAQAWAPALGKRGITINAVAPGFIETQMTAAIPLTIREAGRRMNSMSQGGLPQDVAETVAWFAQPSSGAVSGQVLRVCGQSLLGA”: the protein production entry is listed as “failed”.

Take “MTDVEKPVDNSGTLIDDILSPLKGVNEDLNVLVLGGDKVNNNTDTMMLVNFKPSTSKVSILSIPRDTKVKINGKKAKINSAYPTGGGELAVQTVSELFGIDVKYYVFVDTSSFRKIIDILGGVDYYVPVDMDYDDPLQGLSIHIKKGQHHFDGAMAEKFMRFRQYNNGRVNEYYDGSDLKRIDAQQNFIRELVRQKLNIFYLTKVDDIASTIFSNIDTNLNMSEVLKLTGSVSKVQADSINMLKVPGKSVLDGAWYYVIDSQETDKIINEYFRTRYKLEHHHHHH”: the protein production result is “not failed”.

For the sequence “MTEAMIRKKPGMASVKDMPLLQDGPPPGGFAPVRYARRISNTGPSAMAIFLTVSGAFAWGMYQVGQGNKIRRALKEEKYAARRAILPILQAEEDERFVSEWKKYLEYEADVMKDVPGWKVGENVYNSGRWMPPATGELRPDVW”, the protein production entry is “failed”.

With “MTEFTTLLQQGNAWFFIPSAILLGALHGLEPGHSKTMMAAFIIAIKGTIKQAVMLGLAATISHTAVVWLIAFGGMVISKRFTAQSAEPWLQLISAVIIISTAFWMFWRTWRGERNWLENMHGHDYEHHHHDHEHHHDHGHHHHHEHGEYQDAHARAHANDIKRRFDGREVTNWQILLFGLTGGLIPCPAAITVLLICIQLKALTLGATLVVSFSIGLALTLVTVGVGAAISVQQVAKRWSGFNTLAKRAPYFSSLLIGLVGVYMGVHGFMGIMR”, the protein production entry is reported as “failed”.

On to “MTEGRVIDVDVSSEMESSFLEYAVSVIHSRALPDARDGLKPVQRRIVYQMGDMGLRPERGHVKSSRIVGDVMGKLHPHGDTAIYDALVRLSQSFIMRVPLVDGHGNFGSLDDGPAAPRYTEARLTSASMQMIAGLDEDVVDFVGNYDNTLTQPEVLPSAFPNLLINGTSGIAVGMATNMAPHNPGEVIAACCHLIRNPEAGLAELMRFIPGPDLPTGGRIIGLDGVREAYETGRGTFRTRATVSIENINARRKGIVVTELPYLVGPEKVVSKVKDAVGAKKLTGIASIDDYSDRKNGMRLVIGIKNGFNPEAVLAELYRQTPLEESFSMNNVCLVDGQPRTLGLRELLTVYLAHRIDVIRRRTVFQLRKAKDRLHLVEGLLIAILDIDEVIQLIRSSDDAATARTRLMDVFELSELQATYILDLQLRRLTKFSRIELEAERDELRKKIAYLEDLLADEAKLRELVATELEATAEAIGSPRRTVLIEGSMKELSAKGKKAQADLKIADAPCRVLLSTSGRIARTADASPLQRVGKRSSHDALRSEIVSTTQGKVGAVTSTGRLHMVDVVDLPALPPAATRPNVAGGVKIADYVTLEKNETVLGLIDLDREFVLGTAGGVVKRVSVAARPNKSEWEAITLKGKDSVIGVAQPKDIDESLAVFVTSNAQLLAFDASGLRAQGWNASGVAGMKVAADARALFFGMTPKAAKTDEEGDADTNIGTFAVVTVASGENFYGAPSSSIKVSDFSEYPTKGRATSGVRAHKFLKGETELSLAWVGDSPQAAAQAGGARTLPAEMSRRDATGSPLESKIDVIGTVPRLGDAEAALSGGGAGAGDSGAAGTDASGDGGAASGGGSSSSAATRTQGLATNFGELDLDLDGGPDLDEAKEEIARSKIDSDDAVIVSHDDDDDDDTALF”, for which the protein production entry was “failed”.

On to “MTEIERKFLVATFPDGELHAVPLRQGYLTTPTDSIELRLRQQGTEYFMTLKSEGGLSRQEYEIQIDVTQFEMLWPATEGRRVEKTRYSGKLPDGQLFELDVFAGHLSPLMLVEVEFLSEDAAQAFIPPPWFGEEVTEDKRYKNKALALSIP”, for which the protein production entry is “not failed”.

Take “MTEKKIDFKKEEKKFYAPKRKPERIFVPEMNFLMVDGKGDPDGEEYQKAVQSLYAIAYTIKMSKMGETRLDGYSDFVVPPLEGFWWSEGKFDLKDRDAWLWTSILRQPDFVTEEVLEWAKEVARKKKPDV”: the protein production entry is listed as “failed”.

For the sequence “MTEKRRRLPRPEKAILWPASYLHHRSVTQQLPIMSTPHTDFFGLTIPFMQLLGVVPEHSGNGTARTRLPARADLVNSRGDIHGGTLMSVLDFTLGAAIRGDTPEVGVATIDMNTSFMSPGRGDLVIETRCLRRGASIAFCEGEIRDSAGELVAKATATFKIIQRRPGGD”, the protein production result is “failed”.

As for “MTENTSSFPRSSGELHEFTRADVWGGFTQLLPLSFFVVVFGLAFGVAAVQTGLDAFPTLLMSTLVFAGASQFATLEMWGAEVPLVPVLITVFAINARHLLMGATLYPWLRQLPPHKRYGIMLLASDANWAMAMNAFGKKEPGFGLLVGGGLALWGFWIVGTWMGIYFGGAIKDPVSLGLDMVMGCFLLSMVAGGPKNLRIFAIWGMAAASSLMAYWYLPENSHVVVGAIAGGILGACWKEKKA”, the protein production result was “failed”.

As for “MTEPCRIIGVLDNGAEGLTPQALAYLHAADLVIGAGRTLALFEAHLAEGAECRDLGGRLAQVPDWIAEARRNGKRVAVLATGDPLCHGIAGYLGNKLGREALEILPNVSTIQLACARLGLPWQDMAIGSVHSRDAGDWTPGAGPGHGLYGLLQKLRQADLMGVFTSPENGPDRIARMLRAEGLDEEFEMAIAERLLQADERIHGWLGIAEAAGQCFADPNVVLLRRRPCEREALFGLPDTRFRQRAPDKGLITKREVRAVSLARLALRPDSIVWDIGAGSGAVGLEAARLCPLGHVYAIEKNVEDFAIALSNRESLRVSNYTLVQAKAPRELDGWPDPHGVFIGGSGGELRELIQICLRRLRTGGWLVMNFATLENLAAAVDALKASGASWDVTQLQAARSRPILDMHRLQAENPVWIVCAQRENNE”, the protein production result is recorded as “failed”.

As for “MTEQDIYKLLADGERVTLECKKAQNGVPNSLWETYSAFANTNGGILLLGVYENVAEKDSLMRFTITGVEDADKIRKDLWNTINSREKVNVNLLHDEDVQTISVNGKEVIAINVPRADYNLRPVYINNNLMRGTYRRNHEGDYHCTEQMIKMMVRDAYEDGNDRMFLEYYTMDDIDIPTLEGYRVMFKTNNPEHIWNSLDHKEFLMQLGGYVVNRKDGTEGLTIAGLLMFGKGLPVRERFDYLRMDYIDKSNLIGDQRYSDRLTYDGTWENNLFNFIRMVVPRLTRDIPRPFQMDGIIRKDDTPQHKAVREAFTNMIIHADLMLNGLLRVEKYDDRFVLSNPGLLKLPVEQIYAGGESKARNQRMQHMLRMIGYGENLGSGFPLILSAWNEKHWLKPELVEQPELMQVKLILHIENRVYVTKDVTKDVTKELTERQQIILEFMQADGTITISEMSQKTNVTERTIKRDIESLTEKGILSREGGRKEGRWVIRKILEHHHHHH”, the protein production result is listed as “not failed”.

As for “MTERFDCHHCNESLFGKKYILREESPYCVVCFETLFANTCEECGKPIGCDCKDLSYKDRHWHEACFHCSQCRNSLVDKPFAAKEDQLLCTDCYSNEYSSKCQECKKTIMPGTRKMEYKGSSWHETCFICHRCQQPIGTKSFIPKDNQNFCVPCYEKQHAMQCVQCKKPITTGGVTYREQPWHKECFVCTACRKQLSGQRFTARDDFAYCLNCFCDLYAKKCAGCTNPISGLGGTKYISFEERQWHNDCFNCKKCSLSLVGRGFLTERDDILCPDCGKDI”, the protein production entry is “failed”.

Consider “MTEVNLNIYSPRWGRHETYIVELHKDYMEISMGAVTIKATYSENQDPEWSEETLQDIMNNDSVYPPEITQNLFQHAWLEWRKGALDNDEVTRELELVAQWVNKVTEAKPNSDFWRKYF”, for which the protein production result was “not failed”.

As for “MTFASPDDVIRRFDEQNYLLDTGTASAIYLAVTLGRPLLLEGEPGVGKTTAAKTLAVVLDTTLIRLQCYEGLTANEALYDWNYQRQLLSIRLAEARGKGISDISEADLYTEAYLVDRPILRCVRHRGPTPPVLLIDEIDRADDEFEALLLEFLGESAVTVPELGTFLAECPPIAVLTSNRSRDLHDALRRRCLYHWIDYPEPDRAAAIVRRTVPGATAPLIENATQFVCTARDLDLDKPPGVAETIDWVAALVALGVADLTAADSSPALASLGALAKTPDDRTQIRDAYQAFTECSHA”, the protein production entry is on record as “failed”.

Consider “MTFFIFLLACSAAAATGIIFKPGAWYESLQKPAFTPPNWAFPVAWTTIYLLLAWAGYRLTLLPGSQTVLALWAAQIALNTLWTPVFFGANRIAAAMVILALLWIVVATMIVMALQLDIITGLILFPYLVWLSVAAALNFSILRHNR”, for which the protein production entry is listed as “failed”.

On to “MTFPPPDPAVAPPAEPASRAPHGRPATSGQSASATTVGSGAPLPASSALASTPSQAGPTGRKRPGQSTVTARTGAPNLPDPLGDNVVGERAVVPPIQQGKSRTALTNELNAEPVAGTVPAAPGGDLFIDAVLAQSYRHFFGPTSQPAVPPRQQVISITRLMEKLAYLKPADQALVREAFQFSDEAHLGQYRQSGEPYITHPVAVAELCADWKLDVQSIMAALLHDVMEDQGITKSELAEKFGPKVSELVDGLTKLDKLEFQSREQAQAESFRKMLLAMARDVRVILVKLADRTHNMRTLDFVPPEKRRRIALETMEIYAPIAHRLGLNTIYRELQELSFKVGSPFRYATLEKAVKAARGNRREVVKRILEAAQSALAGAGIVAELSGREKTLYSIYRKMHDKQLSFSQVLDVYGFRVVVETQMHCYMAMGALHGLYKPMPGKFKDYIAIPKINGYQSLHTTLVGPFGTPVEFQIRTRGMHQIAEAGVAAHWMYKHQADHANDIQQQAHQWLQSLLDIQSQTGDSQEFLEHVKIDLFPDAVYVFTPKGHIRALPRGATALDFAYAVHSDLGNQCVAVKINNELLPLRTELKSGDIVEVVTAPYSKPNPSWLAFVRTGKARAAIRHYLKTTKLDEAIQLGERLLEQSTRQLGIELKAVPQSVWDRMIQWTGNKLKEDIFADLALGRRVPAVVARRMEILLQELSGDVDSALLAAVQTFAGEDAPAVPITGDEGMSMIFSACCRPIPGDSIVGYLGKGEGLQIHVQDCKVAKRLHSKDPEHWIEVMWAKKTTRAFDVSIKIMVRNVKGIVARVAADLTSADANVAHVAMEPQQGGHQEATYMQFVIQVQNRLHLANVMRALRRNPDVIRIFRDRNDG”, for which the protein production result is listed as “failed”.

Take “MTFPVIGVVGGGQLARMMAPPATALGFELRVLAEGEDVSAVAAVATAPIGDYKDLDALLEFSKGLDVMTFDHEHVPTQHLQALLDAGVNVQPGPDALVNAQDKLVMRAAIDRLGLPNPEWSAVNTVDELVAFGERIGWPVVLKTPRGGYDGKGVRMVDSADDALETADWFQAMSPLLAEAKVEFSRELSALVARSPSGESRAWPVVHTIQVDGVCDEVIAPAQNISVEVAAAAEEAALRIANELGVTGVMAAELFETPGVGVGFLINELAMRPHNTGHWTQDGSITSQFEQHLRAVLDLPLGATDALAPVVVMKNFLGGDNQDLFKAFPMALAFEPAAKVHSYGKSVRPGRKIGHVNLVGSSVSDVDSVRQRATAVANIIRDGRKPEQTTLEETA”: the protein production result is on record as “failed”.
